The source of these data is US20140087995A1 (published 2014).

Numbered stars: 1 amine (or outer) side, 2 acyl side, 3 side chain; on linkers, the order of the positions; unused ones are H or OH. Bridge positions count the residues as written; N and C are the ends. Side chains are listed from the residue outwards. Ends that are not written are not given here. * marks the point of attachment. C20 diacid = O=C(O)CCCCCCCCCCCCCCCCCCC(=O)*; γGlu = O=C(O)[C@H](CCC(=O)[*:2])N[*:1]

First the molecules themselves.
T1: human amylin receptor (human calcitonin receptor co-expressed with RAMP-3; amylin 3(a) receptor) (human, UniProt P30988 25-474; O60896 24-148, limits assumed)
T1 construct: whole, on cells; Used as cell membranes prepared from Amylin 3(a)/CRE-luc BHK cells (Assay V), not as intact cells; also called hAmylin-R; hAmylinR
T1 sequence (looked up) 1: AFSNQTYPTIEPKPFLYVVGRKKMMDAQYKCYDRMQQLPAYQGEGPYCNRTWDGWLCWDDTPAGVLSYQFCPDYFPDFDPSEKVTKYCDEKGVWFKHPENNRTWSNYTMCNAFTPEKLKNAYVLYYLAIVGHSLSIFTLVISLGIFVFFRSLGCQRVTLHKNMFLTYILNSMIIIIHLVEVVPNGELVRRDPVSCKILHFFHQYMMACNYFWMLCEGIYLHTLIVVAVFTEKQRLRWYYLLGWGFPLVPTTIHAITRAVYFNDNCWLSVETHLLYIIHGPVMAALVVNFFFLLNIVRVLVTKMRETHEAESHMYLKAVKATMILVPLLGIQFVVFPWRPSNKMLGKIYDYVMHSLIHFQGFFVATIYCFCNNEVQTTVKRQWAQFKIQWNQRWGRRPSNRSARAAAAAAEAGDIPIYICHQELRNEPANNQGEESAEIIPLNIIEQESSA
T1 sequence (looked up) 2: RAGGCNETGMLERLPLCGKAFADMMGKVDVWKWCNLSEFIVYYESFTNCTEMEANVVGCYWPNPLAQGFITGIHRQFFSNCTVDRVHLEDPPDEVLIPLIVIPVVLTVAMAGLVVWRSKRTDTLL

T2: human calcitonin receptor (human, UniProt P30988 25-474)
T2 construct: whole, on cells; Used as cell membranes prepared from the transfected BHK cells (Assay VII), not as intact cells; also called hCTR; hCT
T2 sequence (looked up): T1 sequence (looked up) 1

B1: N^ε1-[(4S)-4-carboxy-4-(19-carboxynonadecanoylamino)butanoyl]-[Arg14,Arg17,Pro21,Pro27,Pro31]-h-amylin (peptide)
peptide: K([γGlu-C20 diacid])CNTATCATQRLARFLRHSSPNFGAIPSSTPVGSNTY-NH2
modifications: disulfide 2-7; N-terminus assumed
SMILES: CC[C@H](C)[C@H](NC(=O)[C@H](C)NC(=O)CNC(=O)[C@H](Cc1ccccc1)NC(=O)[C@H](CC(N)=O)NC(=O)[C@@H]1CCCN1C(=O)[C@H](CO)NC(=O)[C@H](CO)NC(=O)[C@H](Cc1c[nH]cn1)NC(=O)[C@H](CCCNC(=N)N)NC(=O)[C@H](CC(C)C)NC(=O)[C@H](Cc1ccccc1)NC(=O)[C@H](CCCNC(=N)N)NC(=O)[C@H](C)NC(=O)[C@H](CC(C)C)NC(=O)[C@H](CCCNC(=N)N)NC(=O)[C@H](CCC(N)=O)NC(=O)[C@@H](NC(=O)[C@H](C)NC(=O)[C@@H]1CSSC[C@H](NC(=O)[C@@H](N)CCCCNC(=O)CC[C@H](NC(=O)CCCCCCCCCCCCCCCCCCC(=O)O)C(=O)O)C(=O)N[C@@H](CC(N)=O)C(=O)N[C@@H]([C@@H](C)O)C(=O)N[C@@H](C)C(=O)N[C@@H]([C@@H](C)O)C(=O)N1)[C@@H](C)O)C(=O)N1CCC[C@H]1C(=O)N[C@@H](CO)C(=O)N[C@@H](CO)C(=O)N[C@H](C(=O)N1CCC[C@H]1C(=O)N[C@H](C(=O)NCC(=O)N[C@@H](CO)C(=O)N[C@@H](CC(N)=O)C(=O)N[C@H](C(=O)N[C@@H](Cc1ccc(O)cc1)C(N)=O)[C@@H](C)O)C(C)C)[C@@H](C)O
notes: also called compound 63
B2: N^ε1-[(4S)-4-carboxy-4-(19-carboxynonadecanoylamino)butanoyl]-[Glu14,Arg17,Pro21,Pro27,Arg35]-h-amylin (peptide)
peptide: K([γGlu-C20 diacid])CNTATCATQRLAEFLRHSSPNFGAIPSSTNVGSRTY-NH2
modifications: disulfide 2-7; N-terminus assumed
SMILES: CC[C@H](C)[C@H](NC(=O)[C@H](C)NC(=O)CNC(=O)[C@H](Cc1ccccc1)NC(=O)[C@H](CC(N)=O)NC(=O)[C@@H]1CCCN1C(=O)[C@H](CO)NC(=O)[C@H](CO)NC(=O)[C@H](Cc1c[nH]cn1)NC(=O)[C@H](CCCNC(=N)N)NC(=O)[C@H](CC(C)C)NC(=O)[C@H](Cc1ccccc1)NC(=O)[C@H](CCC(=O)O)NC(=O)[C@H](C)NC(=O)[C@H](CC(C)C)NC(=O)[C@H](CCCNC(=N)N)NC(=O)[C@H](CCC(N)=O)NC(=O)[C@@H](NC(=O)[C@H](C)NC(=O)[C@@H]1CSSC[C@H](NC(=O)[C@@H](N)CCCCNC(=O)CC[C@H](NC(=O)CCCCCCCCCCCCCCCCCCC(=O)O)C(=O)O)C(=O)N[C@@H](CC(N)=O)C(=O)N[C@@H]([C@@H](C)O)C(=O)N[C@@H](C)C(=O)N[C@@H]([C@@H](C)O)C(=O)N1)[C@@H](C)O)C(=O)N1CCC[C@H]1C(=O)N[C@@H](CO)C(=O)N[C@@H](CO)C(=O)N[C@H](C(=O)N[C@@H](CC(N)=O)C(=O)N[C@H](C(=O)NCC(=O)N[C@@H](CO)C(=O)N[C@@H](CCCNC(=N)N)C(=O)N[C@H](C(=O)N[C@@H](Cc1ccc(O)cc1)C(N)=O)[C@@H](C)O)C(C)C)[C@@H](C)O
notes: also called compound 51
B3: N^ε1-[(4S)-4-carboxy-4-(19-carboxynonadecanoylamino)butanoyl]-[His14,Arg17,Pro21,Pro27,His35]-h-amylin (peptide)
peptide: K([γGlu-C20 diacid])CNTATCATQRLAHFLRHSSPNFGAIPSSTNVGSHTY-NH2
modifications: disulfide 2-7; N-terminus assumed
SMILES: CC[C@H](C)[C@H](NC(=O)[C@H](C)NC(=O)CNC(=O)[C@H](Cc1ccccc1)NC(=O)[C@H](CC(N)=O)NC(=O)[C@@H]1CCCN1C(=O)[C@H](CO)NC(=O)[C@H](CO)NC(=O)[C@H](Cc1c[nH]cn1)NC(=O)[C@H](CCCNC(=N)N)NC(=O)[C@H](CC(C)C)NC(=O)[C@H](Cc1ccccc1)NC(=O)[C@H](Cc1c[nH]cn1)NC(=O)[C@H](C)NC(=O)[C@H](CC(C)C)NC(=O)[C@H](CCCNC(=N)N)NC(=O)[C@H](CCC(N)=O)NC(=O)[C@@H](NC(=O)[C@H](C)NC(=O)[C@@H]1CSSC[C@H](NC(=O)[C@@H](N)CCCCNC(=O)CC[C@H](NC(=O)CCCCCCCCCCCCCCCCCCC(=O)O)C(=O)O)C(=O)N[C@@H](CC(N)=O)C(=O)N[C@@H]([C@@H](C)O)C(=O)N[C@@H](C)C(=O)N[C@@H]([C@@H](C)O)C(=O)N1)[C@@H](C)O)C(=O)N1CCC[C@H]1C(=O)N[C@@H](CO)C(=O)N[C@@H](CO)C(=O)N[C@H](C(=O)N[C@@H](CC(N)=O)C(=O)N[C@H](C(=O)NCC(=O)N[C@@H](CO)C(=O)N[C@@H](Cc1c[nH]cn1)C(=O)N[C@H](C(=O)N[C@@H](Cc1ccc(O)cc1)C(N)=O)[C@@H](C)O)C(C)C)[C@@H](C)O
notes: also called compound 66
B4: N^ε1-[(4S)-4-carboxy-4-(19-carboxynonadecanoylamino)butanoyl]-[Arg14,Arg17,Pro21,Pro27,Pro34]-h-amylin (peptide)
peptide: K([γGlu-C20 diacid])CNTATCATQRLARFLRHSSPNFGAIPSSTNVGPNTY-NH2
modifications: disulfide 2-7; N-terminus assumed
SMILES: CC[C@H](C)[C@H](NC(=O)[C@H](C)NC(=O)CNC(=O)[C@H](Cc1ccccc1)NC(=O)[C@H](CC(N)=O)NC(=O)[C@@H]1CCCN1C(=O)[C@H](CO)NC(=O)[C@H](CO)NC(=O)[C@H](Cc1c[nH]cn1)NC(=O)[C@H](CCCNC(=N)N)NC(=O)[C@H](CC(C)C)NC(=O)[C@H](Cc1ccccc1)NC(=O)[C@H](CCCNC(=N)N)NC(=O)[C@H](C)NC(=O)[C@H](CC(C)C)NC(=O)[C@H](CCCNC(=N)N)NC(=O)[C@H](CCC(N)=O)NC(=O)[C@@H](NC(=O)[C@H](C)NC(=O)[C@@H]1CSSC[C@H](NC(=O)[C@@H](N)CCCCNC(=O)CC[C@H](NC(=O)CCCCCCCCCCCCCCCCCCC(=O)O)C(=O)O)C(=O)N[C@@H](CC(N)=O)C(=O)N[C@@H]([C@@H](C)O)C(=O)N[C@@H](C)C(=O)N[C@@H]([C@@H](C)O)C(=O)N1)[C@@H](C)O)C(=O)N1CCC[C@H]1C(=O)N[C@@H](CO)C(=O)N[C@@H](CO)C(=O)N[C@H](C(=O)N[C@@H](CC(N)=O)C(=O)N[C@H](C(=O)NCC(=O)N1CCC[C@H]1C(=O)N[C@@H](CC(N)=O)C(=O)N[C@H](C(=O)N[C@@H](Cc1ccc(O)cc1)C(N)=O)[C@@H](C)O)C(C)C)[C@@H](C)O
notes: also called compound 65
B5: N^ε1-[(4S)-4-carboxy-4-(19-carboxynonadecanoylamino)butanoyl]-[Arg17,Pro21,Pro27,His35]-h-amylin (peptide)
peptide: K([γGlu-C20 diacid])CNTATCATQRLANFLRHSSPNFGAIPSSTNVGSHTY-NH2
modifications: disulfide 2-7; N-terminus assumed
SMILES: CC[C@H](C)[C@H](NC(=O)[C@H](C)NC(=O)CNC(=O)[C@H](Cc1ccccc1)NC(=O)[C@H](CC(N)=O)NC(=O)[C@@H]1CCCN1C(=O)[C@H](CO)NC(=O)[C@H](CO)NC(=O)[C@H](Cc1c[nH]cn1)NC(=O)[C@H](CCCNC(=N)N)NC(=O)[C@H](CC(C)C)NC(=O)[C@H](Cc1ccccc1)NC(=O)[C@H](CC(N)=O)NC(=O)[C@H](C)NC(=O)[C@H](CC(C)C)NC(=O)[C@H](CCCNC(=N)N)NC(=O)[C@H](CCC(N)=O)NC(=O)[C@@H](NC(=O)[C@H](C)NC(=O)[C@@H]1CSSC[C@H](NC(=O)[C@@H](N)CCCCNC(=O)CC[C@H](NC(=O)CCCCCCCCCCCCCCCCCCC(=O)O)C(=O)O)C(=O)N[C@@H](CC(N)=O)C(=O)N[C@@H]([C@@H](C)O)C(=O)N[C@@H](C)C(=O)N[C@@H]([C@@H](C)O)C(=O)N1)[C@@H](C)O)C(=O)N1CCC[C@H]1C(=O)N[C@@H](CO)C(=O)N[C@@H](CO)C(=O)N[C@H](C(=O)N[C@@H](CC(N)=O)C(=O)N[C@H](C(=O)NCC(=O)N[C@@H](CO)C(=O)N[C@@H](Cc1c[nH]cn1)C(=O)N[C@H](C(=O)N[C@@H](Cc1ccc(O)cc1)C(N)=O)[C@@H](C)O)C(C)C)[C@@H](C)O
notes: also called compound 60

One assay concerns the target T1, human amylin receptor (human calcitonin …). The assay can be described thus: ratio of hCTR binding IC50 to hAmylin-R binding IC50 (reference: human calcitonin receptor). The protocol:
The resulting pellet was resuspended, homogenized and centrifuged (20.000 rpm, 15 min) in a buffer containing 20 mM Na-HEPES and 0.1 mM EDTA (pH 7.4, buffer 2). The resulting pellet was resuspended in buffer 2 and protein concentration was measured (BCA protein Assay, Pierce). The homogenate was kept cold during the whole procedure. The membranes were kept at −80° C. until use. The assay was performed in a 384 well Optiplate (PerkinElmer) in a total volume of 40 ul. Membranes were mixed with SPA beads. Final concentration of membranes 35 ng/μL final and SPA beads was 0.05 mg/well. Test-compounds were dissolved in DMSO and further diluted in assay buffer (50 mM Hepes, pH 7.4, 1 mM CaCl2, 5 mM MgCl₂, 0.1% OA and 0.02% Tween20). […] The final mixture was incubated with shaking at 400 rpm for 120 min at 25° C. prior to centrifugation (1500 rpm, 10 min). Samples were analyzed on TopCounter™ (Packard). The IC₅₀ was calculated using (one site binding competition analysis) GraphPad Prism5 as a measure of receptor affinity.
Membranes were prepared in the following way; the cells were rinsed with PBS and incubated with Versene for approximately 5 min before harvesting. The cells were flushed with PBS and the cell-suspension was centrifuged for 5 min at 1000 rpm. Cells were homogenized (Ultrathurrax) in a buffer containing 20 mM Na-HEPES and 10 mM EDTA (pH 7.4) and centrifuged at 20.000 rpm for 15 min. The resulting pellet was resuspended, homogenized and centrifuged (20.000 rpm, 15 min) in a buffer containing 20 mM Na-HEPES and 0.1 mM EDTA (pH 7.4, buffer 2). The resulting pellet was resuspended in buffer 2 and protein concentration was measured (BCA protein Assay, Pierce). The homogenate was kept cold during the whole procedure. The membranes were kept at −80° C. until use. Assay was performed in a 384 well Optiplate (PerkinElmer) in a total volume of 40 ul. Membranes were mixed with SPA beads.
B1: the “Ratio hCT/hAmylin binding” value is 157.
Regarding B2, the “Ratio hCT/hAmylin binding” value worked out at 37.5.
Consider B3, for which the “Ratio hCT/hAmylin binding” value was found to be 45.5.
Still for that read-out and setting: with B4 the figure was 82.4.
As to B5, the “Ratio hCT/hAmylin binding” value was determined as 45.2.

The next assay addresses T2, human calcitonin receptor. Kind of assay: SPA competition against 125I-calcitonin, membranes with human calcitonin receptor (Assay VII). The procedure, abridged:
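BHK hCTR membranes 35 ng/μL + SPA beads 0.05 mg/well; buffer 50 mM Hepes pH 7.4, 1 mM CaCl2, 5 mM MgCl₂, 0.1% OA, 0.02% Tween20. 120 min, 25° C., shaking. Scintillation count; IC50 by one-site binding competition.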
B1: the 50% inhibitory concentration (IC50) was determined as 130 nM.
Turning to B2, the 50% inhibitory concentration (IC50) was 31.1 nM.
On the same count and under the same terms, for B3 the value was 18 nM; for B4, 53.5 nM; for B5, 31.4 nM.

One may read the IC50 as the midpoint of a concentration-inhibition curve.
